From the supplement of paper PMC10724198
± gives the standard deviation of the averaged measurements.

Tested on: Saccharomyces cerevisiae
Assay: protein stability index of tFT-peptide fusion (C-terminal peptide) (PSI (0-1 scale)); higher = more stable (slower turnover)
Settings: genetic background: wild type; temperature: 30 C
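Also: PSI is a weighted mean of sequencing reads over stability bins, variants kept only with over 10 reads, mCherry proximal and sfGFP distal, peptide attached via GGGS linker.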

Sequence	protein stability index
LSSGSCLESPFT	0.732 ± 0.08
LSSLYSSLTFFL	0.651 ± 0.014
LSSNSTTSATYR	0.722 ± 0.016
LSSSVIFALPLP	0.767 ± 0.034
LSSTGFDLWSLL	0.769 ± 0.067
LSTAWFYFSLLF	0.635 ± 0.072
LTCRGESYAGLI	0.651 ± 0.014
LTFWLGSLGLWG	0.72 ± 0.019
LTHLPSLCVRRI	0.647 ± 0.06
LTHTVLVGSALN	0.647 ± 0.024
LTIEFSARLGNA	0.663 ± 0.03
LTLPLFPPPCSV	0.648 ± 0.018
LTPEPPRPPTPY	0.699 ± 0.033
LTPSVRDKRPPI	0.759 ± 0.055
LTPTLLTNPQAD	0.678 ± 0.022
LTRFQPTPCLPP	0.691 ± 0.0074
LTVVGGVVGKVG	0.689 ± 0.037
LVAAEARIGFAV	0.7 ± 0.012
LVCLLFTNKVMH	0.599 ± 0.011
LVEARQGAFLVV	0.692 ± 0.029
LVEEGKKLTSKF	0.711 ± 0.078
LVGALISHSILR	0.629 ± 0.019
LVGRVGAVAGPA	0.691 ± 0.028
LVHGWERPSRVR	0.661 ± 0.021
LVIGTTLSSLML	0.742 ± 0.066
LVLDVLDLRRHC	0.649 ± 0.012

Sequence	protein stability index
LVLLDQISVPLI	0.6474 ± 0.00096
LVLLFGIGTTHW	0.65 ± 0.049
LVLRLLRGFLPK	0.681 ± 0.014
LVNVIPSHERAT	0.656 ± 0.037
LVPSPLIFPSLG	0.783 ± 0.012
LVRCPLGVPGAS	0.7085 ± 0.0065
LVSGFRYPFSCL	0.611 ± 0.037
LVSLVGVGWGCG	0.729 ± 0.023
LVVGNQFIRRSD	0.685 ± 0.023
LVVPNFPLSFSV	0.732 ± 0.055
LVVSLGLFLLRH	0.549 ± 0.045
LVWFQYFRLWGG	0.61 ± 0.029
LWENVVLVEGGK	0.704 ± 0.069
LWGEGAGPEDVG	0.674 ± 0.011
LWGGAGAGYWVG	0.727 ± 0.033
LWGVGWPLLGGL	0.691 ± 0.04
LWISDSGSLYFS	0.739 ± 0.018
LWKLLNTVKNAA	0.62 ± 0.01
LWLDKSREGSLG	0.701 ± 0.021
LWLSAPDRREPF	0.684 ± 0.041
LWRRPASSLLPI	0.701 ± 0.018
LWSDPGQILVEL	0.717 ± 0.015
LYPGYIVVANYK	0.661 ± 0.032
LYPNPPLLPCSP	0.612 ± 0.046
LYQEPLRNACFC	0.683 ± 0.1
LYRRGTYFEGLI	0.704 ± 0.012

Sequence	protein stability index
LYSGLASEIWYT	0.737 ± 0.045
LYSPSLRPPLLL	0.855 ± 0.18
LYSRSSRLFRPL	0.804 ± 0.042
LYSTATLSLCSR	0.707 ± 0.12
LYTNLIGFNSWI	0.713 ± 0.037
LYVTYVPYTYAT	0.665 ± 0.012
MALAVRVVGCGA	0.594 ± 0.014
MDKIKKNYSQIG	0.693 ± 0.036
MEAAGVGRVVWR	0.632 ± 0.056
MEGNQTSVRGRT	0.677 ± 0.083
MESGKILGCCGI	0.684 ± 0.012
MGGDATSLKRLV	0.703 ± 0.0091
MGGRDNLVQKEW	0.804 ± 0.091
MGYNSRHLDISM	0.677 ± 0.018
MIKAPGHKGTIN	0.684 ± 0.02
MITRPASKYLVK	0.6221 ± 0.0052
MIVSILRSRSFS	0.557 ± 0.0066
MKNKSTEKNRKF	0.72815 ± 0.00016
MKPPRGRIVITG	0.626 ± 0.02
MLGRLLDRCYDY	0.678 ± 0.029
MLHLNPVLHISG	0.653 ± 0.041
MLLLWRVPQCGE	0.638 ± 0.055
MLMFSASAVWGG	0.556 ± 0.048
MLPPRRAPFPPP	0.735 ± 0.018
MLYENNTAPLFI	0.635 ± 0.045
MPCPFSSASRAI	0.668 ± 0.036

Sequence	protein stability index
MPENGSTKSWWK	0.696 ± 0.082
MPGSLPVSRVLL	0.74 ± 0.087
MQLWECKQSLCD	0.696 ± 0.017
MQQWSTKSPGVI	0.651 ± 0.027
MREAQAFRCLYG	0.636 ± 0.0019
MSFFPCVFSGFG	0.738 ± 0.033
MSGRGPYPYSPL	0.7465 ± 0.0034
MSKTIEREGNMI	0.735 ± 0.034
MSPSVFLPPLPL	0.662 ± 0.09
MSRRSVFGAVFW	0.663 ± 0.039
MSSTLCMLPFSV	0.771 ± 0.012
MTKNKFLTGSRL	0.845 ± 0.22
MTYSVWENVLTW	0.733 ± 0.032
MVDGFLRFDTKM	0.704 ± 0.13
MVELWQPASVFS	0.663 ± 0.033
MVGASFAILGFI	0.699 ± 0.014
MWAEWLCHGDRN	0.742 ± 0.068
NAKGRKQTGKRK	0.695 ± 0.035
NAYRYFLNKQNR	0.697 ± 0.012
NCFIPPARVFPS	0.686 ± 0.028
NCFVTILLGMWK	0.513 ± 0.022
NCKLAVSPRPLR	0.692 ± 0.051
NELSPSQDLPSS	0.671 ± 0.095
NERTETVHQGTP	0.691 ± 0.045
NFCSSGLPLLII	0.648 ± 0.022
NFLPSAARTRTP	0.6758 ± 0.0023

Sequence	protein stability index
NFPVLLSISALL	0.548 ± 0.072
NGGERQDGGKHR	0.648 ± 0.034
NGKGARSGETRT	0.647 ± 0.057
NGTGGVEGPQTL	0.659 ± 0.025
NHTLPGTRSSVW	0.684 ± 0.09
NIIADTHARRRF	0.748 ± 0.11
NIKEKRNKKKRR	0.677 ± 0.073
NINITQNVKNIK	0.716 ± 0.06
NIPESSVSKLSK	0.678 ± 0.026
NIRYRQKEKKND	0.573 ± 0.031
NKDGIKKKKYNK	0.668 ± 0.032
NKFLRSVVRKHE	0.671 ± 0.011
NKFNTINQNREV	0.678 ± 0.04
NKHDGRKWARYK	0.6494 ± 0.00069
NKKETRKQKTKK	0.673 ± 0.017
NKKGMSIWANER	0.68915 ± 0.0002
NKKIYRTKIKKL	0.5917 ± 0.00069
NKKKKHTQYKRK	0.694 ± 0.0077
NKKQTKKKRKNK	0.731 ± 0.037
NKLYDESLALYP	0.704 ± 0.044
NKNGGDLCLGSS	0.652 ± 0.049
NKTIVNNVKIRY	0.574 ± 0.0065
NKVRDKTQLKIE	0.78 ± 0.094
NLCRLGHTAGVL	0.753 ± 0.086
NLKLIRSEYNLN	0.658 ± 0.042
NLRKGHSDERVV	0.691 ± 0.071

Sequence	protein stability index
NLRSIYKLGRLT	0.549 ± 0.011
NLRVANLAQRTE	0.703 ± 0.05
NLSLPSPPLTTN	0.731 ± 0.0082
NMIKNNKWDINR	0.7 ± 0.074
NMYQQIESEYSK	0.676 ± 0.045
NNEKIEQRYSMK	0.711 ± 0.019
NNRIRNIISIRK	0.743 ± 0.04
NPFCPILPFALL	0.853 ± 0.069
NPLDRQNCTCGE	0.656 ± 0.13
NPLKAGFLVVTT	0.6508 ± 0.0032
NPPPSPALLSRP	0.809 ± 0.06
NPSSKVIALWKI	0.556 ± 0.046
NPTPPNLRSNLF	0.6877 ± 0.0055
NPVFPPPPHSQL	0.75 ± 0.18
NPWTHVPGRQNH	0.731 ± 0.054
NQPPFPLRRPPT	0.699 ± 0.048
NRCGGACGRQAG	0.711 ± 0.027
NRCIRIQETVRI	0.619 ± 0.053
NRFFFRHGCVVF	0.691 ± 0.031
NRNSHSGKIKLK	0.691 ± 0.049
NRVHLPELAFIT	0.662 ± 0.014
NRVPKKPAHLQQ	0.647 ± 0.013
NSCVFCLCHDLA	0.6991 ± 0.006
NSGKPWTLGRQE	0.701 ± 0.043
NSPTYEEKERHL	0.82 ± 0.15
NSRDCILQARET	0.713 ± 0.012

Sequence	protein stability index
NTMVPPTGSGNA	0.732 ± 0.13
NTPNRNFTYTEN	0.685 ± 0.038
NTRIKGERNILH	0.702 ± 0.026
NTRKNTTRKSQE	0.637 ± 0.042
NVYSVRGPWYGG	0.6604 ± 0.0059
NYRPAHSFGVIS	0.725 ± 0.018
NYSKPSYLVRAK	0.697 ± 0.053
PAAPLPPTPPPP	0.708 ± 0.0082
PAAPPHGFPPPR	0.6341 ± 0.0046
PACSPLPPLPLS	0.7 ± 0.018
PADPRSSPPVQQ	0.691 ± 0.02
PAGFQTPPLVHD	0.708 ± 0.091
PAHPHPYHPSLH	0.6265 ± 0.0042
PAHPPPPATPCP	0.6817 ± 0.0063
PAHPSDIGAAAP	0.675 ± 0.042
PAHSYPILASGH	0.675 ± 0.034
PALKQEGRPEHS	0.6942 ± 0.0053
PALLTICRTSLP	0.64 ± 0.00076
PALPPPFPPFSP	0.72 ± 0.084
PALPPPPPSPPL	0.676 ± 0.15
PALPPPSLPPPP	0.6718 ± 0.0023
PALTSSGPPPLV	0.741 ± 0.096
PANQVKTILGRL	0.694 ± 0.11
PAPALPPPSSPP	0.69 ± 0.0095
PAPAPPPPAVPL	0.612 ± 0.018
PAPAPSPSFRDH	0.708 ± 0.094

Sequence	protein stability index
PAPASDYLRGRR	0.691 ± 0.049
PAPPPPPLPPPP	0.615 ± 0.041
PAPPPPPPRPPP	0.669 ± 0.071
PAPPPPPRPPPS	0.655 ± 0.008
PAPPSPPPPLYP	0.721 ± 0.046
PAPPSPSPPPPL	0.836 ± 0.14
PAPPTPPPPLYP	0.715 ± 0.015
PAPPVFVPSLPL	0.801 ± 0.029
PAPRLEPRSPNV	0.676 ± 0.021
PAPSAPLLRTRP	0.6702 ± 0.0019
PAPSLPPPRLAP	0.653 ± 0.026
PAPSPLVLFFGF	0.692 ± 0.03
PAPSRRTVTDYW	0.654 ± 0.015
PARTPSPPAPSH	0.657 ± 0.056
PASASVHPRILC	0.559 ± 0.05
PASLPPSPPLLL	0.696 ± 0.039
PASPPTSPRSVP	0.742 ± 0.022
PASRNWGLNPDT	0.677 ± 0.025
PATRFSPPSSLS	0.745 ± 0.028
PAVGPDGTIRPL	0.706 ± 0.037
